In patent publication US20150152185A1:

How the values were obtained:
[1] = target: CD123 (human IL-3Ralpha), form in the assay not stated (human) (UniProt P26951); assay: method not stated
[2] = target: CD123 (IL-3 receptor alpha chain, IL-3Ralpha) on cells (human) (UniProt P26951); assay: cell-based or functional assay

CSL360 (chimeric antibody: 7G3 variable regions on a human IgG1 constant region)
Kd [1]: 1.06 nM
% CD107a positive NK cells, PBMC with AML sample RMH003 and CSL360 [2]: 39%
% lysis, 51Cr release ADCC, CTLEN cells, E:T 10:1 [2]: 10%
% lysis, 51Cr release ADCC, CTLEN cells, E:T 100:1 [2]: 51%
% lysis, 51Cr release ADCC, SL (AML) cells, E:T 10:1 [2]: 2.4%
% lysis, 51Cr release ADCC, SL (AML) cells, E:T 100:1 [2]: 15%
% lysis, calcein release ADCC, RBH013 (AML), E:T 10:1 [2]: 0%
% lysis, calcein release ADCC, RBH013 (AML), E:T 100:1 [2]: 0%
% lysis, calcein release ADCC, RMH003 (AML), E:T 10:1 [2]: 39.2%
% lysis, calcein release ADCC, RMH003 (AML), E:T 100:1 [2]: 82.6%
% lysis, calcein release ADCC, RMH008 (AML), E:T 10:1 [2]: 59.5%
% lysis, calcein release ADCC, RMH008 (AML), E:T 100:1 [2]: 100%
% lysis, calcein release ADCC, RMH009 (B-ALL), E:T 10:1 [2]: 0%
% lysis, calcein release ADCC, RMH009 (B-ALL), E:T 100:1 [2]: 0%
% lysis, calcein release ADCC, RMH009* (B-ALL, repeat with other PBMC), E:T 10:1 [2]: 0%
% lysis, calcein release ADCC, RMH009* (B-ALL, repeat with other PBMC), E:T 100:1 [2]: 0%
% lysis, calcein release ADCC, RMH010 (AML), E:T 10:1 [2]: 4%
% lysis, calcein release ADCC, RMH010 (AML), E:T 100:1 [2]: 0%
% of NK cells expressing CD107a, CSL360 at E:T 1:1, CTLEN-001 [2]: 6.7%
% of NK cells expressing CD107a, CSL360 at E:T 1:1, CTLEN-008 [2]: 24%
% of NK cells expressing CD107a, CSL360 at E:T 1:1, CTLEN-010 [2]: 5.7%
% of NK cells expressing CD107a, CSL360 at E:T 1:1, CTLEN-011-PBMC-1 [2]: 8.1%
% of NK cells expressing CD107a, CSL360 at E:T 1:1, CTLEN-011-PBMC-2 [2]: 10.5%
% of NK cells expressing CD107a, CSL360 at E:T 1:1, EL4hi-002 [2]: 2.9%
% of NK cells expressing CD107a, CSL360 at E:T 1:1, EL4hi-003 [2]: 15%
% of NK cells expressing CD107a, CSL360 at E:T 1:1, EL4hi-004 [2]: 16%
% of NK cells expressing CD107a, CSL360 at E:T 1:1, EL4hi-005 [2]: 21%
% of NK cells expressing CD107a, CSL360 at E:T 1:1, EL4hi-010 [2]: 34%
% of NK cells expressing CD107a, CSL360 at E:T 1:1, EL4hi-011-PBMC-1 [2]: 15.5%
% of NK cells expressing CD107a, CSL360 at E:T 1:1, EL4hi-011-PBMC-2 [2]: 23.5%
% of NK cells expressing CD107a, CSL360 at E:T 1:1, EL4hi/lo-001 [2]: 2.8%
% of NK cells expressing CD107a, CSL360 at E:T 1:1, RBH009^a (AML) [2]: 8.5%
% of NK cells expressing CD107a, CSL360 at E:T 1:1, RBH009^b (AML) [2]: 8%
% of NK cells expressing CD107a, CSL360 at E:T 1:1, RBH013^a (AML) [2]: 10%
% of NK cells expressing CD107a, CSL360 at E:T 1:1, RBH013^b (AML) [2]: 22%
% of NK cells expressing CD107a, CSL360 at E:T 1:1, RMH003^a (AML) [2]: 30%
% of NK cells expressing CD107a, CSL360 at E:T 1:1, RMH003^b (AML) [2]: 33%
% of NK cells expressing CD107a, CSL360 at E:T 1:1, RMH003^c (AML) [2]: 38%
% of NK cells expressing CD107a, CSL360 at E:T 1:1, RMH007 (B-ALL) [2]: 16.4%
% of NK cells expressing CD107a, CSL360 at E:T 1:1, RMH008^a (AML) [2]: 9%
% of NK cells expressing CD107a, CSL360 at E:T 1:1, RMH008^b (AML) [2]: 16%
% of NK cells expressing CD107a, CSL360 at E:T 1:1, RMH008^c (AML) [2]: 8.7%
% of NK cells expressing CD107a, CSL360 at E:T 1:1, RMH009^a (B-ALL) [2]: 3%
% of NK cells expressing CD107a, CSL360 at E:T 1:1, RMH009^b (B-ALL) [2]: 1.7%
% of NK cells expressing CD107a, CSL360 at E:T 1:1, RMH009^c (B-ALL) [2]: 7.4%
% of NK cells expressing CD107a, CSL360 at E:T 1:1, RMH010^a (AML) [2]: 14%
% of NK cells expressing CD107a, CSL360 at E:T 1:1, RMH010^b (AML) [2]: 25.5%
% of NK cells expressing CD107a, CSL360 at E:T 1:1, RMH011 (AML) [2]: 6.6%
% of NK cells expressing CD107a, CSL360 at E:T 1:1, TF-1 (GM-CSF) [2]: 0.7%
% of NK cells expressing CD107a, CSL360 at E:T 1:1, TF-1 (IL-3) [2]: 1.45%
IC50, IL-3-dependent TF-1 cell proliferation [2]: 5 nM
